According to patent US20090028881A1 (ROCHE PALO ALTO, published 2009):

Biological target: T1, human CCR5 (wild-type) (human, UniProt P51681 1-352)
T1 construct: also called wild-type CCR5
Assay: alanine scanning epitope mapping
Source text: Epitope binding is investigated by using alanine scanning according to the method described by W. C. Olson et al. (J. Virol. (1999) 73:4145-55) for epitope mapping. […] 100% epitope binding is defined for wild-type CCR5. A further preferred anti-CCR5 antibody binds to the same epitope as antibody C binds.

T1 sequence (P51681 whole entry): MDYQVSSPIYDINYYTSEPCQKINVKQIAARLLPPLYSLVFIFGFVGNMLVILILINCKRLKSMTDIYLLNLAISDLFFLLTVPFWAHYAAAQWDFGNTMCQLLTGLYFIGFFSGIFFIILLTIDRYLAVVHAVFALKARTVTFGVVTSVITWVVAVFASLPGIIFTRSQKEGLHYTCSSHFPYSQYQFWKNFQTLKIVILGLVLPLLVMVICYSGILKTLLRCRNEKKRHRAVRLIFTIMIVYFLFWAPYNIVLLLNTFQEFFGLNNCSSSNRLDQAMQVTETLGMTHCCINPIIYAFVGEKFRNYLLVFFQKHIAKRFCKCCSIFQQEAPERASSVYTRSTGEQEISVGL

B1: <CCR5>Pz03.1C5 (antibody, V domains shown)
VH: QVQLKQSGPGLVRPSQSLSITCTVSGFPLGIFGVHWVRQSPGKGLEWLGVIWKGGNTDYNAAFMSRLRITKDNSKSQVFFRMNSLQTDDTAIYYCAKVNLADAMDYWGQGTSVIVSS
VL: DIQMTQSPASLSASVGETVTITCRASGNIHGYLAWFQQKQGKSPQLLVYNTKTLAEGVPSRFSGSGSGTQFSLKINSLQPEDFGNYYCQHHYDLPRTFGGGTKLEIKR
notes: also called Antibody C; m<CCR5>Pz03.1C5
binding result: binds
